Positions count from the first letter of the chain named.
B1: 9H3 (antibody, V domains shown)
VH: QSVKESEGGLFKPTDTLTLTCTVSGFSLSGYGVSWVRQAPGKGLEYIGFIGSGGSAYYASWAKSRSTITRNTNLNTVTLKMTRLTAADTATYFCARDNVGGDMSLDIWGPGTLVTVSS
VL: DIVMTQTPASVSEPVGGTVTIKCQASQNINNYLSWYQQKPGQPPKQLIYAASTLASGVPSRFKGSGSGTQFTLTISDLECADAATYYCHQDYTSNNVDNTFGGGTEVVVK
B2: 8F5 (antibody, V domains shown)
VH: QSVKESEGGLFKPTDTLTLTCTVSGFSLSSYPISWVRQAPGNGLEWIGYITSEYGVAYYATWAESRSTITRNTNLNTVTLKMTSLTAADTATYFCVRENPTYGYAYDAWGPGTLVTVSS
VL: AYDLTQTPASVEAAVGGTVTINCQASESIGNELSWYQQKSGQPPKLLIYQASTLASGVPSRFKGSGSGTDFTLTISDLECADAATYYCAQGFSSSGVENVFGGGTEVVVK
B3: 10C5 (antibody, V domains shown)
VH: QSLEESGGGLVKPTDTLTLTCTVSGFSLSSYGVTWVRQAPGRGLEWIGYITSNYGVSYYASWAKSRSTITRNTNLNTVTLKMTSLTAADTATYFCARENPDYGYAYDAWGPGTLVTVSV
VL: B2 VL with L4M, V11L, G30S, S40P, K45D, Q50Y, D70E, S93G
B4: 9B6 (antibody, V domains shown)
VH: B1 VH with T16N, G30N, S34T, K42N, R83S, N98D, D102G, M103K
VL: NIVMTQTPASVEVAVGGTVVIKCQASQNIGDYLSWYQQKPGQRPKLLIYSASTLASGVPSRFKGSGSGTQFTLTISDLECADAATYYCHQDYTSNDVENTFGGGTEVVVK
B5: 2B11 (antibody, V domains shown)
VH: QSVKESEGGLFKPTDTLTLTCTVSGFSLINYGVSWVRQAPGKGLEWIGYIGSAGSTYYATWAKSRATITRNTNLNTVTLKMTSLTAADTATYFCARAAYSAGSADAEDIWGPGTLVTVSS
VL: AYYMTQTPASVEAAVGGTVTIKCQASQSISNYVAWYQQKPGQPPKLLIYRASTLASGVSSRFSGSGSGTEFTLTISDLECADAATYYCHQGYSSSNVDNIFGGGTEVVVK
B6: 2-3F4 (antibody, V domains shown)
VH: QSVEESRGGLIKPTDTLTLTCTASGFSLSNYGVSWVRQAPGNGLEYIGFIGYGGSTYYASWAKSRSTITRNTNLNTVTLQMTSLTAADTATYFCARLCGVDCADALDSWGPGTLVTVSS
VL: AYYMTQTPASVEVAVGGTVTIKCQASEDIGSYCSWYQQKPGQPPKLLIYDASDLASGVPSRFKGSGSGTDFTLTISGVQCDDAATYYCQQDYTGNNVDNTFGGGSEVVVK
B7: hu10C5.L5H28 (antibody, V domains shown)
VH: EVQLVESGGGLVQPGGSLRLSCAASGFSLSSYGVTWVRQAPGKGLEWIGYITSNYGVSYYASWAKSRSTISRDTSKNTVYLQMGSLRAEDMAVYYCARENPDYGYAYDAWGQGTTVTVSS
VL: AIRMTQSPSSFSASTGDRVTITCQASESISNELSWYQQKPGKAPKLLIYYASTLASGVPSRFSGSGSGTDFTLTISSLQPEDFATYYCAQGFGSSGVENVFGGGTKVEIK
B8: hu3-3F5.L5H19 (antibody, V domains shown)
VH: EVQLLESGGGLVQPGGSLRLSCAVSGFSLNDYGVSWVRQAPGKGLEWVGAIGSSGVAWYANFAKGRFTISRDNSKNTLYLQMNSLRAEDTAVYYCARDRDYGYRADDATSGMDLWGRGTLVTVSS
VL: AIRMTQSPSSFSASTGDRVTITCQASESIGNALAWYQQKPGKAPKLLIYDASDLASGVPSRFSGSGSGTDFTLTISSLQPEDFATYYCQQGDSHNNVDNIFGGGTKVEIK
B9: hu3-3F5.L5H25 (antibody, human IgG1, V domains shown)
VH: B8 VH with V24A, N73T, L78V
VL: B8 VL
B10: hu9H5.L4H14 (antibody, V domains shown)
VH: EVQLVESGGGLIQPGGSLRLSCAASGFSLSSYGVSWVRQAPGKGLEYVGFIGSGGFAYYASWAKSRFTISRDNSKNTLYLQMNSLRAEDTAVYYCARDDVGGGKSLDIWGQGTLVTVSS
VL: DIQMTQSPSSLSASVGDRVTITCQASQSISSYLSWYQQKPGKAPKLLIYSASTLASGVPSRFSGSGSGTDFTLTISSLQPEDFATYYCHQDYTSSNVDNTFGGGTKVEIK
B11: 8G10 (antibody, V domains shown)
VH: QSLEESGGDLVKPEGSLTLTCTASGFSFSTSYWICWVRQAPGKGLEWIACVYGLDVNIYYASWTEGRFTISKTSSTTVTLQVTSLTAADTATYFCARGGGSADFGFDLWGPGTLVTVSS
VL: DVVMTQTPASVSEPVGGTVTIKCQASENIYSLLAWYQQKPGQPPKVLIYDASDLASGVPSRFKGSGSGTQFTLTISDLECADAATYYCQATAYGSSGNAFGGGTEVVVK

molecular target: recombinant human KLK5 (human) (UniProt Q9Y337); test: direct activity assay, 5 nM KLK5, Boc-VPR-AMC
Sequence (Q9Y337 67-293): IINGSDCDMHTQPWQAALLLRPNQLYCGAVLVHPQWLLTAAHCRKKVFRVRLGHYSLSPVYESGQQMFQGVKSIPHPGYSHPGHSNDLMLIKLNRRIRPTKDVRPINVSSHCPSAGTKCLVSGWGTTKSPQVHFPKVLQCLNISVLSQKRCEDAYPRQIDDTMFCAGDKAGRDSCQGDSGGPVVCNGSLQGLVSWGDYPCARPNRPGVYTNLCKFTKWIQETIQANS

Row | IC50 | Binder
1 | 1.08 nM | B1
2 | 1.15 nM | B2
3 | 0.98 nM | B3
4 | 1.17 nM | B4
5 | 1.29 nM | B5
6 | 1.02 nM | B6

molecular target: recombinant human KLK5 (human) (UniProt Q9Y337); test: SPR BIAcore T200, antibody captured by anti-human Fc, human KLK5 as analyte, 37 C

Row | Kd | koff | kon | Binder
7 | 0.0165 nM | 0.000292 s⁻¹ | 1.78e+07 M⁻¹ s⁻¹ | B3
8 | 0.057 nM | 0.00108 s⁻¹ | 1.9e+07 M⁻¹ s⁻¹ | B7
9 | 0.00414 nM | 0.000201 s⁻¹ | 4.84e+07 M⁻¹ s⁻¹ | B8
10 | 0.00914 nM | 0.000235 s⁻¹ | 2.57e+07 M⁻¹ s⁻¹ | B9
11 | 0.694 nM | 0.000562 s⁻¹ | 810000 M⁻¹ s⁻¹ | B10

molecular target: recombinant human KLK5 (human) (UniProt Q9Y337); test: pro-KLK7 LC/MS assay, 5 nM KLK5

Row | IC50 | Binder
12 | 1.05 nM | B1
13 | 1.31 nM | B2
14 | 0.31 nM | B3
15 | 1.42 nM | B4
16 | 1.72 nM | B5
17 | 0.38 nM | B6

molecular target: recombinant human KLK5 (human) (UniProt Q9Y337); test: Kiapp assay curve, 0.250 nM KLK5, Z-VPR-pNA

Row | IC50 (read off the curve) | Binder
18 | 0.1 nM | B1
19 | 0.1 nM | B4

molecular target: recombinant human KLK5 (human) (UniProt Q9Y337); test: KLK5 direct activity assay, 5 nM KLK5, Boc-VPR-AMC

Row | IC50 (read off the curve) | Binder
20 | 0.9 nM | B1
21 | 1 nM | B2
22 | 1 nM | B3
23 | 1 to 2 nM | B4
24 | 1 to 2 nM | B5
25 | 1 nM | B6

molecular target: recombinant human KLK5 (human) (UniProt Q9Y337); test: pro-KLK1 LC/MS assay, 0.5 nM KLK5, 300 nM pro-KLK1; box column 2 of 3; no unit printed, nM per text

Row | IC50 | Binder
26 | 0.0802 nM | B1
27 | 0.16 nM | B2
28 | 0.123 nM | B3
29 | 0.202 nM | B4
30 | 0.584 nM | B5
31 | 0.173 nM | B6

molecular target: recombinant human KLK5 (human) (UniProt Q9Y337); test: pro-KLK7 coupled assay, 5 nM KLK5, 125 nM pro-KLK7, suc-LLVY-AMC

Row | IC50 (read off the curve) | Binder
32 | 1 nM | B1
33 | 0.8 nM | B2
34 | 1 nM | B4
35 | 1 nM | B6

molecular target: recombinant human KLK5 (human) (UniProt Q9Y337); test: pro-KLK7 coupled assay, 5 nM KLK5

Row | IC50 | Binder
36 | 1.05 nM | B1
37 | 0.76 nM | B2
38 | 0.58 nM | B3
39 | 0.95 nM | B4
40 | 0.86 nM | B5
41 | 1.1 nM | B6

molecular target: recombinant human KLK5 (human) (UniProt Q9Y337); test: pro-KLK1 LC/MS assay, 0.5 nM KLK5, 300 nM pro-KLK1; box column 1 of 3; no unit printed, nM per text

Row | IC50 | Binder
42 | 0.0728 nM | B1
43 | 0.069 nM | B2
44 | 0.0399 nM | B3
45 | 0.0659 nM | B4
46 | 0.369 nM | B5
47 | 0.054 nM | B6

molecular target: recombinant human KLK5 (human) (UniProt Q9Y337); test: pro-KLK1 coupled assay, 0.5 nM KLK5, 31.25 nM pro-KLK1, PFR-AMC

Row | IC50 (read off the curve) | Binder
48 | 0.1 nM | B1
49 | 0.1 to 0.2 nM | B2
50 | 0.1 nM | B3
51 | 0.2 nM | B5
52 | 0.1 nM | B6

molecular target: recombinant human KLK5 (human) (UniProt Q9Y337); test: Kiapp assay curve, 0.063 nM KLK5, Z-VPR-pNA

Row | IC50 (read off the curve) | Binder
53 | 0.05 nM | B1
54 | 0.1 nM | B4

molecular target: recombinant human KLK5 (human) (UniProt Q9Y337); test: pro-KLK7 LC/MS assay, 5 nM KLK5, 15 nM pro-KLK7, nM

Row | IC50 | Binder
55 | 1.05 nM | B1
56 | 1.31 nM | B2
57 | 0.311 nM | B3
58 | 1.42 nM | B4
59 | 1.72 nM | B5
60 | 0.384 nM | B6

molecular target: recombinant human KLK5 (human) (UniProt Q9Y337); test: Kiapp as the y-intercept of the line of IC50 (nM) versus KLK5 (nM), Z-VPR-pNA

Row | Ki | Binder
61 | 0.0697 nM | B1
62 | 1.85 nM | B2
63 | 0.0412 nM | B3
64 | 0.165 nM | B4
65 | 6.36 nM | B5
66 | 0.939 nM | B6

molecular target: recombinant human KLK5 (human) (UniProt Q9Y337); test: pro-KLK1 LC/MS assay, 0.5 nM KLK5

Row | IC50 | Binder
67 | 0.09 nM | B1
68 | 0.16 nM | B2
69 | 0.08 nM | B3
70 | 0.12 nM | B4
71 | 0.48 nM | B5
72 | 0.09 nM | B6

molecular target: recombinant human KLK5 (human) (UniProt Q9Y337); test: Kiapp, KLK5 0.5-0.0625 nM, Z-VPR-pNA

Row | Ki | Binder
73 | 0.07 nM | B1
74 | 1.91 nM | B2
75 | 0.15 nM | B3
76 | 0.185 nM | B4
77 | 6.35 nM | B5
78 | 1.14 nM | B6

molecular target: recombinant human KLK5 (human) (UniProt Q9Y337); test: Kiapp assay curve, 0.125 nM KLK5, Z-VPR-pNA

Row | IC50 (read off the curve) | Binder
79 | 0.07 nM | B1
80 | 0.1 nM | B4

molecular target: recombinant human KLK5 (human) (UniProt Q9Y337); test: pro-KLK1 LC/MS assay, 0.5 nM KLK5, 300 nM pro-KLK1; box column 3 of 3; no unit printed, nM per text

Row | IC50 | Binder
81 | 0.104 nM | B1
82 | 0.241 nM | B2
83 | 0.0795 nM | B3
84 | 0.0879 nM | B4
85 | 0.0279 nM | B6

molecular target: recombinant human KLK5 (human) (UniProt Q9Y337); test: Kiapp assay curve, 0.500 nM KLK5, Z-VPR-pNA

Row | IC50 (read off the curve) | Binder
86 | 0.2 nM | B1
87 | 0.2 nM | B4

molecular target: recombinant human KLK5 (human) (UniProt Q9Y337); test: array SPR imaging (IBIS MX96), antibody amine-coupled, human KLK5 injected 0-300 nM, 25 C

Row | koff | Binder
88 | 0.000143 s⁻¹ | B1
89 | 0.000316 s⁻¹ | B2
90 | 0.000126 s⁻¹ | B3
91 | 0.000178 s⁻¹ | B4
92 | 0.000574 s⁻¹ | B5
93 | 0.000184 s⁻¹ | B6
94 | 0.000245 s⁻¹ | B11

molecular target: recombinant human KLK5 (human) (UniProt Q9Y337); test: pro-KLK1 coupled assay, 0.5 nM KLK5

Row | IC50 | Binder
95 | 0.12 nM | B1
96 | 0.149 nM | B2
97 | 0.111 nM | B3
98 | 0.074 nM | B4
99 | 0.17 nM | B5
100 | 0.129 nM | B6
